Results on 2 molecules are retold here after publication PMC6498573, “Genomic analyses of aminoacyl tRNA synthetases from human-infecting helminths” (BMC Genomics, 2019).

For data set [1], the target named is T1, Onchocerca volvulus prolyl tRNA synthetase (OvPRS) (Onchocerca volvulus, UniProt A0A2K6VID2).
T1 construct: OvPRS construct of 497 amino acids (279–775; 57 kDa), MBP-His tag removed by TEV
T1 sequence (A0A2K6VID2 279-775): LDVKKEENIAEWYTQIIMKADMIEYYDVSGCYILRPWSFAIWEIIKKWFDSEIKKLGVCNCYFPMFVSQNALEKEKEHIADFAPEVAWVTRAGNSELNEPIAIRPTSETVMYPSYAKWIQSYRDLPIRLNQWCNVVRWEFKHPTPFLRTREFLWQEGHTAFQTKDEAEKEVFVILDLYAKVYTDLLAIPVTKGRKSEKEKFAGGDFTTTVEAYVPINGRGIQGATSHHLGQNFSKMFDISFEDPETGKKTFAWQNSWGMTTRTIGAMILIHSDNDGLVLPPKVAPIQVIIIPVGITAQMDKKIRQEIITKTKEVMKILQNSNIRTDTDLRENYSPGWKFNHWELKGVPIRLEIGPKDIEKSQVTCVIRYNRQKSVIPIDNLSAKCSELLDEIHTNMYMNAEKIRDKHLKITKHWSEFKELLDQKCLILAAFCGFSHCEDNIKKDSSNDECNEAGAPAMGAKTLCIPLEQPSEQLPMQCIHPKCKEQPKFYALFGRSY
Put plainly: malachite green aminoacylation assay with recombinant purified OvPRS ([…] proline, […] ATP, […] enzyme). In kind it is biochemical.

Substrate in data set [2]: O=C(O)[C@@H]1CCCN1
In words: purified protein. In kind it is biochemical, Onchocerca volvulus.

Substrate in data set [3]: Nc1ncnc2c1ncn2[C@@H]1O[C@H](COP(=O)(O)OP(=O)(O)OP(=O)(O)O)[C@@H](O)[C@H]1O
Put plainly: purified protein. It counts as biochemical, Onchocerca volvulus.

As a reminder, the IC50 is the midpoint of a concentration-inhibition curve. The Km is the substrate concentration at which the rate is half of its maximum.

Turning to `O=C(CC1NCCCC1O)Cn1cnc2cc(Br)c(Cl)cc2c1=O` (stereo not drawn) [HF, halofuginone], the IC50 in data set [1] was around 30 nM.

B1: Onchocerca volvulus prolyl tRNA synthetase (OvPRS) (Onchocerca volvulus) (protein)
chain: LDVKKEENIAEWYTQIIMKADMIEYYDVSGCYILRPWSFAIWEIIKKWFDSEIKKLGVCNCYFPMFVSQNALEKEKEHIADFAPEVAWVTRAGNSELNEPIAIRPTSETVMYPSYAKWIQSYRDLPIRLNQWCNVVRWEFKHPTPFLRTREFLWQEGHTAFQTKDEAEKEVFVILDLYAKVYTDLLAIPVTKGRKSEKEKFAGGDFTTTVEAYVPINGRGIQGATSHHLGQNFSKMFDISFEDPETGKKTFAWQNSWGMTTRTIGAMILIHSDNDGLVLPPKVAPIQVIIIPVGITAQMDKKIRQEIITKTKEVMKILQNSNIRTDTDLRENYSPGWKFNHWELKGVPIRLEIGPKDIEKSQVTCVIRYNRQKSVIPIDNLSAKCSELLDEIHTNMYMNAEKIRDKHLKITKHWSEFKELLDQKCLILAAFCGFSHCEDNIKKDSSNDECNEAGAPAMGAKTLCIPLEQPSEQLPMQCIHPKCKEQPKFYALFGRSY
notes: OvPRS construct of 497 amino acids (279–775; 57 kDa), MBP-His tag removed by TEV
In the case of B1, the Km in data set [2] worked out at 24.17 ± 11 µM; in data set [3], 18.9 ± 2.2 µM.
